Source: patent publication US20030129189A1, “Tumor necrosis factor-gamma” (priority 1994, published 2003)
Values belong to the molecule of their own block, whether it stands above or below them.

Legend:
TNF-gamma-beta [1] = biological target: T1, TNF-gamma-beta (Homo sapiens, UniProt O95150); experiment: Inhibition of TNF-gamma-beta induced caspase activation in TF-1 cells; type: cell-based; conditions: presence of cycloheximide
T1 construct: made in house; host or cells: E. coli (untagged) or 293T (FLAG-tagged)
T1 sequence (O95150 72-251): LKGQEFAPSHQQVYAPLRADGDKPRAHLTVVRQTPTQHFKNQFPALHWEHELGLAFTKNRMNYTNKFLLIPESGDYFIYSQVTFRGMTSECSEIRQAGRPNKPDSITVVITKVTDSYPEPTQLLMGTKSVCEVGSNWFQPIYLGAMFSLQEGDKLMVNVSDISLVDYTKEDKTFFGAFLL
Method: Briefly, cells growing in microtiter plates are induced to undergo apoptosis, causing an activation of caspase activities. Equal volume of a caspase substrate (Asp-Glu-Val-Asp-Rhodamine 110, or DEVD-R110) solution is then added and incubated for at least 1 hour. During this incubation, cells are being lysed and free R110 is released from the substrate. The level of free R110 is determined fluorimetrically, using a fluorescence reader with excitation filter 470-500 nm and emission filter 500-560 nm.
A black 96-well plate with a clear bottom is seeded with 75,000 TF-1 cells in RPMI containing 1% fetal bovine serum and micrograms/milliliter cyclohexamide. […] Following the manufacturer's directions, an equal volume of 1×substrate solution containing 50 micromolar DEVD-R110 diluted in incubation buffer is added to each well. The 96-well plates are then incubated for 2 hours after which the plate is read in a fluorescence reader with an excitation filter at 485 nm and an emission filter at 535 nm.
These solutions were then incubated for 1 hour at room temperature.
The reagents were incubated for 1 hour at RT to allow the formation of protein-TNF-gamma-beta complexes and then added to the cells. Caspase activity was measured as described above.

TNF-gamma-beta [2] = biological target: T1, TNF-gamma-beta; experiment: Inhibition of TNF-gamma-beta-mediated IFNγ secretion from T cells; type: cell-based; conditions: costimulated T cells
Method: The extent of the increase in IL-2 receptor expression is consistent with the moderate increase in IL-2 responsiveness compared with IL-2 itself.
1×10^5 cells/ml of purified T cells were seeded in a 24-well tissue culture plate that had been coated with anti-CD3 (0.3 microgram/ml) and anti-CD28 (5.0 microgram/ml) overnight at 4° C. […] ELISA assay for IFNγ, GM-CSF, IL-2 IL-4, IL-10 and TNFα were performed using kits purchased from R & D Systems. Recombinant human IL-2 (5 ng/ml) was used as a positive control. All samples were tested in duplicate and results were expressed as an average of duplicate samples plus or minus error.

TNF-gamma-beta [3] = biological target: T1, TNF-gamma-beta; experiment: Inhibition of TNF-gamma-beta activation of NF-κB in 293T cells; type: cell-based
Method: To avoid spontaneous apoptosis or NF-κB activation accompanied with DR3 overexpression, a limited amount of DR3-expression DNA that by itself minimally activated these pathways was used.
293T cells were transiently transfected using LipofectAMINE and PLUS reagents according to the manufacturer's instruction (Invitrogen). For reporter assays, 293T cells, at 5×10^5 cells/well, were seeded in 6-well plates and transfected with a total of 1 microgram of DNA. pC4 DNA was used as filler DNA. Conditioned supernatant was collected 24 hr post-transfection and assayed for secreted alkaline phosphatase (SEAP) activity using the Phospha-Light™ chemiluminescent reporter gene assay system (Tropix). pCMV-lacZ was used as internal control for transfection efficiency normalization.

TNF-gamma-beta [4] = biological target: T2, TNF-gamma-beta (Homo sapiens, UniProt O95150); experiment: FACS binding of receptor-Fc proteins to cells expressing full length TNF-gamma-beta
T2 construct: expressed in transfected cells
T2 sequence (O95150 1-251): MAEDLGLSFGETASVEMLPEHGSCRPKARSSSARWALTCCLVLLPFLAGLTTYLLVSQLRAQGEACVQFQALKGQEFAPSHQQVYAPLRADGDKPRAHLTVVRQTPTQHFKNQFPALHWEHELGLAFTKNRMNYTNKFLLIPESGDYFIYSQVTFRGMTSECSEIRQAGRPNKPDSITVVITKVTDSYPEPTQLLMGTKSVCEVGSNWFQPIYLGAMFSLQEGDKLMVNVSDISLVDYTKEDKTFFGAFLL
Method: These cells were used to screen the Fc-fusion form of the extracellular domain of TNFR family members, including TNFR1, Fas, HveA, DR3, DR4, DR5, DR6, DcR1, DcR2, TR6, OPG, RANK, AITR, TAC1, CD40, and OX40. […] TR6 has been previously described as a decoy receptor (Pitti et al., Nature 396:699-703 (1998); Yu et al., J. Biol. Chem. 274:13733-6 (1999)) capable of competing with Fas and HveA for binding of FasL and LIGHT, respectively.
Cells resistant to 0.5 mg/ml Genticin (Invitrogen) were selected and expanded. Expression of TNF-gamma-beta mRNA was confirmed by quantitative RT-PCR analysis and surface expression of TNF-gamma-beta protein confirmed by FACS analyses using TNF-gamma-beta monoclonal antibodies.
(§1) One million cells, in 0.1 ml of FACS buffer (PBS, 0.1% BSA, 0.1% NaN3), were incubated with 0.1-1 microgram of protein or antibody at RT for 15 min. The cells were washed with 3 ml of FACS buffer, reacted with biotinylated primary antibody, and stained with PE-conjugated secondary antibody at RT for 15 min. Cells were then washed again, resuspended in 0.5 microgram/ml of propidium iodide, and live cells were gated and analyzed on a FACScan using the CellQuest software (BD Biosciences).

[5] = system: TNF-gamma on the cell surface; experiment: FACS analysis of receptor-ligand binding on cells
Method: Consistent with the Northern blot analysis, peripheral blood mononuclear cells (PBMC) and human umbilical vein endothelial cells (HUVEC) express TNF-gamma on the cell surface by immunostaining with antibody to TNF-gamma. [Cells were collected by trypsinization or aspiration, and centrifuged at 1500-2000 rpm for 5 min. The cell pellets were resuspended and washed in 5 ml ice-cold PBS twice. The cells were incubated for 30 min at […] with antibody (10 mg/ml ) to TNF-gamma to detected expression of TNF-gamma on cell surface, with DR3-Fc or LTbR-Fc (10 mg/ml) for receptor and ligand binding in the binding buffer (HBSS containing 10% BSA, 20 mM HEPES, pH 7.2, 0.02% NaN3). […] Fluorescence was analyzed by a FACscan flow cytometer (Becton Dickinson, Mountain View, Calif.).] […] After incubation at 37° C. for 72 hr, the NF-kB activity was measured with luminometer at absorbance of 450 nm.]
Cells were collected by trypsinization or aspiration, and centrifuged at 1500-2000 rpm for 5 min. […] The cells were incubated for 30 min at 40° C. with antibody (10 mg/ml ) to TNF-gamma to detected expression of TNF-gamma on cell surface, with DR3-Fc or LTbR-Fc (10 mg/ml) for receptor and ligand binding in the binding buffer (HBSS containing 10% BSA, 20 mM HEPES, pH 7.2, 0.02% NaN3). […] Fluorescence was analyzed by a FACscan flow cytometer (Becton Dickinson, Mountain View, Calif.).

TNF-gamma-beta [6] = biological target: T3, TNF-gamma-beta (Homo sapiens, UniProt O95150); experiment: Coimmunoprecipitation of TNF-gamma-beta by TNFR-Fc proteins; type: binding
T3 construct: made in house; host or cells: 293T cells, transient transfection
T3 sequence (O95150 72-251 limits assumed): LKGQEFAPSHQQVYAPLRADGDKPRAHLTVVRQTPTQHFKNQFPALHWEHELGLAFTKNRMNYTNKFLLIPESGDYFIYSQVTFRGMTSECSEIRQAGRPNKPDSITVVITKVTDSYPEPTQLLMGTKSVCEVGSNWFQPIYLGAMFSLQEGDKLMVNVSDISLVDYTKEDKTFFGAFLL
From the text: (§2) The beads were then precipitated and washed extensively with PBST buffer (PBS, 0.5% Triton X-100) before boiled in SDS-sample buffer. Proteins were resolved on 4-20% Tris-Glycine gels (NOVEX), transferred to nitrocellulose membranes, and blotted with anti-Flag M2 monoclonal antibody (1 microgram/ml, Sigma) andhorseradish peroxidase (HRP)-conjugated goat anti-mouse IgG antibody (0.5 microgram/ml).

[7] = biological target: T4, full length TNF-gamma-beta on the cell surface (HEK293F stable transfectants; transfected cells) (human, UniProt O95150 1-251); experiment: flow cytometry on HEK293F cells expressing full length TNF-gamma-beta
T4 construct: also called TNF-gamma-beta expressing cells
T4 sequence: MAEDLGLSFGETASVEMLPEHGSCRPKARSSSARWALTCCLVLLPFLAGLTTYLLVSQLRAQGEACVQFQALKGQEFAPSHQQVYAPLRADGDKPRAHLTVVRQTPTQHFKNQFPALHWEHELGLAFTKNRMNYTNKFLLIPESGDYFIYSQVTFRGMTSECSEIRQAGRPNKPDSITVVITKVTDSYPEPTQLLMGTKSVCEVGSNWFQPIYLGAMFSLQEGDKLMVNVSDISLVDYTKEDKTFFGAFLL
Method: TR6 has been previously described as a decoy receptor (Pitti et al., Nature 396:699-703 (1998); Yu et al., J. Biol. Chem. 274:13733-6 (1999)) capable of competing with Fas and HveA for binding of FasL and LIGHT, respectively.
as §1, with “NaN₃),” for “NaN3),”

[8] = biological target: T5, FLAG-tagged soluble TNF-gamma-beta (aa 72-251) (human, UniProt O95150 72-251); experiment: co-immunoprecipitation with protein A-Sepharose, anti-Flag M2 blot
T5 construct: also called FLAG-TL1β; FLAG-TNF-gamma-beta; not shown: The N-terminal FLAG tag (pFLAG-CMV-1 vector) and any vector linker
T5 sequence: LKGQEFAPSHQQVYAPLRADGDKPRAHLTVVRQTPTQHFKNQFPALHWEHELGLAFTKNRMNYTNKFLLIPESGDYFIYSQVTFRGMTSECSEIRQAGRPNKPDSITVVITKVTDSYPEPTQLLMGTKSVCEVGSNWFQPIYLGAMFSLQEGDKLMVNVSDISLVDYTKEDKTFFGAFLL
From the text: as §2

[9] = system: MC-38 murine colon cancer; experiment: In vivo tumorigenicity assay, syngeneic MC-38 colon cancer; parameters: species or system C57BL6/6 mice; conditions: local production by transfected MCA 38 cells, 1×10^6 cells/mouse
Method: [The full-length TNF-gamma and extracellular domain of DR3 was cloned into pcDNA3 expression vector and transfected to MCA 38 cells, respectively. After selection and cloning, three clones from each constructs were picked for tumorigenicity study. MCA 38 cells (1×10^6 cells/mouse) expressing TNF-gamma or DR3 extracellular domain were injected into C57BL6/6 mice. The tumor size was assessed by measuring perpendicular diameters with a caliper and calculated by multiplying the measurements of diameters in two dimensions. Data are represented as the mean +/−SD of 6 mice in each group.] It is clear that most immune cells and cancer cells can express more than one TNF receptor (even more than one death receptor) and ligand superfamily member. […] Moreover, the expression of these ligands and receptors may differ at the level of individual cell types within tissues and the expression level on the same cell type may also differ.
The full length TNF-gamma and extracellular domain of DR3 was cloned into pcDNA3 expression vector (Invitrogen, Carlsbad, Calif.) and transfected to MCA 38 cells, respectively. […] Mice then were randomized and tumors were measured twice weekly. The tumor size was assessed by measuring perpendicular diameters with a caliper and calculated by multiplying the measurements of diameters in two dimensions. […]

- inhibition of TNF-gamma-beta-mediated IFNγ secretion (TNF-gamma-beta [2]): able to inhibit
- inhibition of TNF-gamma-beta activation of NF-κB (TNF-gamma-beta [3]): specifically inhibited
- binding to cells expressing TNF-gamma-beta (FACS) (TNF-gamma-beta [4]): bound efficiently
Molecule: DR3-Fc: recombinant receptor DR3-Fc fusion protein (Fc-extracellular domain of DR3) [reference compound]
- inhibition of TNF-gamma-beta induced caspase activation (TNF-gamma-beta [1]): inhibited by either DR3-Fc or TR6-Fc protein
- binding to HUVEC cells and PBMC ([5]; FACS): also binds to HUVEC cells and PBMC
- binding to TNF-gamma-transfected tumor cells (FACS shift) ([5]; MC-38/TNF-gamma cells): indicating cell-surface binding between TNF-gamma and DR3
- immunoprecipitation of TNF-gamma-beta (TNF-gamma-beta [6]): specifically interacted with FLAG-TNF-gamma-beta

- binding result [7]: no binding
- binding result [8]: no binding
B1: TACI-Fc (extracellular domain of human TACI, aa 1-159, fused to the Fc domain of human IgG1) (Fc fusion, UniProt O14836 1-159, looked up)
chain: MSGLGRSRRGGRSRVDQEERFPQGLWTGVAMRSCPEEQYWDPLLGTCMSCKTICNHQSQRTCAAFCRSLSCRKEQGKFYDHLLRDCISCASICGQHPKQCAYFCENKLRSPVNLPPELRRQRSGEVENNSDNSGRYQGLEHRGSEASPALPGLKLSADQ
notes: range 1-159; also called TAC1; not shown: Fc domain of human IgG1, fused in-frame to the C-terminus of the receptor part

B2: soluble DR3: extracellular domain of DR3 locally produced by transfected MCA 38 cells (protein, UniProt Q93038 25-199, looked up)
extracellular domain: QGGTRSPRCDCAGDFHKKIGLFCCRGCPAGHYLKAPCTEPCGNSTCLVCPQDTFLAWENHHNSECARCQACDEQASQVALENCSAVADTRCGCKPGWFVECQVSQCVSSSPFYCQPCLDCGALHRHTRLLCSRRDTDCGTCLPGFYEHGDGCVSCPTSTLGSCPERCAAVCGWRQ
modifications: extracellular domain
notes: extracellular domain of DR3 locally produced by transfected MCA 38 cells
- tumor growth [9]: promotes tumor growth
